{
  "source": "patent US20190382746",
  "origin": "cited, not measured here",
  "key": {"[1]": {"system": "RSG1.2 peptide (synthetic)", "conditions": "CITED? source not stated; cited from earlier work"}, "[2]": {"system": "PP7 coat protein (Pseudomonas phage PP7)", "conditions": "CITED? source not stated; cited from earlier work"}},
  "data": [
    {"substance": "RSG1.2 aptamer (HIV RRE, 34 nt)", "values": [
      {"measurement": "Kd", "setting": "[1]", "value": 6, "unit": "nM"}
    ]},
    {"substance": "PP7 aptamer (25 nt)", "values": [
      {"measurement": "Kd", "setting": "[2]", "value": 2, "unit": "nM"}
    ]}
  ]
}
